Reference: paper PMC11808123
pKd: −log10 of the molar value.

How the values were obtained:
[1] = target: Recombinant CDK2 (human, full length), biotinylated (human) (UniProt P24941); test: BLI; with 100 nM INX-315; details: domain or fragment
[2] = target: Recombinant CDK2 (human, full length), biotinylated (human) (UniProt P24941); test: BLI; no drug; details: domain or fragment

pKd [1]: 9.62
koff [1]: 5e-05 s⁻¹
pKd [2]: 9.24
koff [2]: 0.00011 s⁻¹
Substance: Recombinant cyclin A (human Cyclin A, residues 173-465)
